Ends that are not written are not given here.
Molecular target: T1, CD94-NKG2A (Homo sapiens, UniProt P13747+P26715+Q13241)
T1 construct: a linker into which cDNA encoding the extracellular domain of type II membrane proteins is inserted; Flag (N); CD8 leader (N); made in house; host or cells: 293T cells for the Fc fusion proteins; mouse RMA-S transfectants for HLA-E and B2M
Test: not given
Details: peptide bound to HLA-E; cited from earlier work

T1 sequence (P61769 21-119): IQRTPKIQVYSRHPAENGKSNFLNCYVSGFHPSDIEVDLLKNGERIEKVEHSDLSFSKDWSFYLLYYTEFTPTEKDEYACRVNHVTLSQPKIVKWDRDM
T1 sequence (P26715 94-233): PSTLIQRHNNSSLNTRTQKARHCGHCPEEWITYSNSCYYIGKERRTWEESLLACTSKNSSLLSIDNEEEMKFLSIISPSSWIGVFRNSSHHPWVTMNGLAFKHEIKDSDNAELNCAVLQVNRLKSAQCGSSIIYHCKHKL
T1 sequence (P13747 22-358): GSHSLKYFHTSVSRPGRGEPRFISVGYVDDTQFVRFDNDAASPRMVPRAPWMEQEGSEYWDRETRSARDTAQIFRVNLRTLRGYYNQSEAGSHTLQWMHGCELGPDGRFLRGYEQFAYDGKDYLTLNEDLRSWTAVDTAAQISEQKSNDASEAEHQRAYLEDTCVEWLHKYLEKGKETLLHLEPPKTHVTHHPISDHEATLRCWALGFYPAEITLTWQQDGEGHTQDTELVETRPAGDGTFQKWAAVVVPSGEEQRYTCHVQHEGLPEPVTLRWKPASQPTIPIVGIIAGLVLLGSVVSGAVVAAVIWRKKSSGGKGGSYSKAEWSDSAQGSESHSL
T1 sequence (Q13241 32-179): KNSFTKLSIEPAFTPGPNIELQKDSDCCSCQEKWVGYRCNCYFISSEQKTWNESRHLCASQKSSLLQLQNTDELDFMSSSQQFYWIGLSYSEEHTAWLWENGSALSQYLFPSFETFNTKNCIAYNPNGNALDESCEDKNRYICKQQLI

Sequence | binding of HLA-E/peptide to CD94-NKG2A
VMAPRTLFL [HLA-G leader peptide] | bind both CD94-NKG2A and CD94-NKG2C (albeit with low affinity)

Molecular target: T2, sHLA-E*01:03 (Homo sapiens, UniProt P13747)
T2 construct: A soluble construct of HLA-E*01:03 was constructed by removing the transmembrane and cytoplasmic domains; expressed in transfected cells; host or cells: human U-373MG cells, uninfected or infected with CMV strain AD169
Test: Identification of peptides eluted from soluble HLA-E of CMV-infected vs uninfected U-373MG cells by immunoaffinity purification and LC-MS/MS
Format: binding
Details: number of spectra for the peptide, LC-MS/MS identification of HLA-E ligands (Table 1)

Sequence | # Spec
SASSATACTSGVMT | 439
SASSATACTSGVMTR | 439
SDEELVTTER | 406
VTGGGAMAGASTSAGR | 420

Same assay, conditions: number of spectra found for the HCMV peptide listed as HLA-E ligand (Table 1)

Sequence | # Spec
APSQKSKRSVTVEQPSTSADGSN (7) | 21
AQGDDDVWTSGSDSDEELVTTER (85) | 393
ARERGEFGDEDEEQEND (22) | 351
ARERGEFGDEDEEQENDGEPR (21) | 351
DDDVWTSGSDSDEELVTTER (87) | 396
EAGGVGGSSGGGGGSGLLPAKRS (55) | 1211
GPGLDNDLMNEPMGLGGLGGGGGGGGKKH (43) | 312
HRHLPVAD (82) | 139
MDGDVRTAADISSTER (63) (MDGDVRTAADISSTLR) | 519
PATLTAYDK (57) | 572
PNTYIHKTETD (60) | 221
PTYDELPSRPPQ (4) | 730
PVTGEDTFSAHGKSD (52) | 615
RSVTVEQPSTSAD (9) | 28
SQKSKRSVTVEQPSTSAD (8) | 23
SSVSGVRTPR (17) (also: PTM present) | 2
SVPAPRPSPISTAST (72) | $35
SVTVEQPSTSA (12) | 29
VLGPISGHV (78) | 14
VLGPISGHVLK (79) | 14
VRTAADISSTLR (67) | 2
VRTAADISSTLRSVPAPRPSP (66) | 3
VRTAADISSTLRSVPAPRPSPISTA (68) | 3
VTFEFVPNTK (46) | 419
VTVEQPSTSAD (13) | 30
VWTSGSDSDEELVTTE (91) | 399

Molecular target: T3, CD94-NKG2C (Homo sapiens, UniProt P13747+P26717+Q13241)
T3 construct: a linker into which cDNA encoding the extracellular domain of type II membrane proteins is inserted; Flag (N); CD8 leader (N); made in house; host or cells: 293T cells for the Fc fusion proteins; mouse RMA-S transfectants for HLA-E and B2M
Test: not given
Details: peptide bound to HLA-E; cited from earlier work

T3 sequence (Q13241 32-179): as the sequence (Q13241 32-179) above
T3 sequence (P61769 21-119, further chain): as the sequence (P61769 21-119) above
T3 sequence (P13747 22-358): as the sequence (P13747 22-358) above
T3 sequence (P26717 94-231): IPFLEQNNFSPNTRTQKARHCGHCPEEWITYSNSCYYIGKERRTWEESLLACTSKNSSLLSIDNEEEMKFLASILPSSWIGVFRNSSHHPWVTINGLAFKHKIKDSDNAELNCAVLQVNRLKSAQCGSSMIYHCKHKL

Sequence | binding of HLA-E/peptide to CD94-NKG2C
VMAPRTLFL [HLA-G leader peptide] | bind both CD94-NKG2A and CD94-NKG2C (albeit with low affinity)
